In doi:10.1101/2025.10.20.683411 (bioRxiv, 2025):

Columns and labels:
hNup153 (aa875-1475) = biological target: T1, hNup153 (aa875-1475) (human, UniProt P49790 875-1475, fluorescein-5-maleimide label (labelled protein mixed with unlabelled protein)); experiment: fluorescence microscopy of particles formed by mixed purified labelled proteins
T1 sequence: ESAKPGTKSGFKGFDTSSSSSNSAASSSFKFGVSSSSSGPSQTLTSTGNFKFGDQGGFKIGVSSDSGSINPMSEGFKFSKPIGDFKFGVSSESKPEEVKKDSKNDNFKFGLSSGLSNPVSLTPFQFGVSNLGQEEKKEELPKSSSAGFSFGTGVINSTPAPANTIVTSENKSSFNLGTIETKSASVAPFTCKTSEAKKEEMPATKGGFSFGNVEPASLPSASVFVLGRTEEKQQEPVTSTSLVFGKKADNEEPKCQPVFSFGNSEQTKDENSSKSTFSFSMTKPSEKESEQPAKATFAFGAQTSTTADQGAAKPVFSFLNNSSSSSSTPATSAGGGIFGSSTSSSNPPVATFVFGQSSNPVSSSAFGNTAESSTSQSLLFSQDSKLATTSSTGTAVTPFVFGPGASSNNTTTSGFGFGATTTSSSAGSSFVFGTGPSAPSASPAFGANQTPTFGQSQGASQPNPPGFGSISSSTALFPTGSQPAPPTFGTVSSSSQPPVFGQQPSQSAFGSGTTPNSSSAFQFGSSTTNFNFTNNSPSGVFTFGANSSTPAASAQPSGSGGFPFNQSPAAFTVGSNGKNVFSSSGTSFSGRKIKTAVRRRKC

yNup100FG (aa1-580) = yNup100FG (aa1-580) (yeast, UniProt Q02629 1-580, fluorescein-5-maleimide label (labelled protein mixed with unlabelled protein)); experiment: as above
yNup116FG (aa1-725) = yNup116FG (aa1-725) (yeast, UniProt Q02630 1-725, fluorescein-5-maleimide label (labelled protein mixed with unlabelled protein)); experiment: as above
[1] = biological target: the molecule itself; experiment: fluorescence microscopy of particles formed by one purified labelled protein
[2] = biological target: the molecule itself; experiment: fluorescence microscopy of particles formed by mixed purified labelled proteins

Measured: binding result

B1: DNAJB6 isoform b, wildtype (natural protein)
chain: not shown
modifications: Alexa Fluor 594 C5-maleimide label (labelled protein mixed with unlabelled protein)
not listed: [2]
binds: all other assays above

B2: DNAJB2 isoform a (natural protein, human)
chain: MASYYEILDVPRSASADDIKKAYRRKALQWHPDKNPDNKEFAEKKFKEVAEAYEVLSDKHKREIYDRYGREGLTGTGTGPSRAEAGSGGPGFTFTFRSPEEVFREFFGSGDPFAELFDDLGPFSELQNRGSRHSGPFFTFSSSFPGHSDFSSSSFSFSPGAGAFRSVSTSTTFVQGRRITTRRIMENGQERVEVEEDGQLKSVTINGVPDDLALGLELSRREQQPSVTSRSGGTQVQQTPASCPLDSDLSEDEDLQLAMAYSLSEMEAAGKKPADVFC
modifications: Alexa Fluor 594 C5-maleimide label (labelled protein mixed with unlabelled protein)
not listed: [1]
binds: all other assays above

B3: DNAJB8 (natural protein, human)
chain: MANYYEVLGVQASASPEDIKKAYRKLALRWHPDKNPDNKEEAEKKFKLVSEAYEVLSDSKKRSLYDRAGCDSWRAGGGASTPYHSPFDTGYTFRNPEDIFREFFGGLDPFSFEFWDSPFNSDRGGRGHGLRGAFSAGFGEFPAFMEAFSSFNMLGCSGGSHTTFSSTSFGGSSSGSSGFKSVMSSTEMINGHKVTTKRIVENGQERVEVEEDGQLKSVTVNGKEQLKWMDSKC
modifications: Alexa Fluor 594 C5-maleimide label (labelled protein mixed with unlabelled protein)
not listed: [1]
binds: all other assays above
